The source of these data is patent US20220220199A1.

The target of the assay is LAG-3 expressed at the surface of Jurkat LAG-3+/NFAT-luc2 effector cells (Promega) (UniProt P18627). Put plainly: cell-based or functional assay.
Chain of LAG-3 expressed at the surface of Jurkat LAG-3+/NFAT-luc2 effector cells (Promega) (P18627 23-525 limits assumed): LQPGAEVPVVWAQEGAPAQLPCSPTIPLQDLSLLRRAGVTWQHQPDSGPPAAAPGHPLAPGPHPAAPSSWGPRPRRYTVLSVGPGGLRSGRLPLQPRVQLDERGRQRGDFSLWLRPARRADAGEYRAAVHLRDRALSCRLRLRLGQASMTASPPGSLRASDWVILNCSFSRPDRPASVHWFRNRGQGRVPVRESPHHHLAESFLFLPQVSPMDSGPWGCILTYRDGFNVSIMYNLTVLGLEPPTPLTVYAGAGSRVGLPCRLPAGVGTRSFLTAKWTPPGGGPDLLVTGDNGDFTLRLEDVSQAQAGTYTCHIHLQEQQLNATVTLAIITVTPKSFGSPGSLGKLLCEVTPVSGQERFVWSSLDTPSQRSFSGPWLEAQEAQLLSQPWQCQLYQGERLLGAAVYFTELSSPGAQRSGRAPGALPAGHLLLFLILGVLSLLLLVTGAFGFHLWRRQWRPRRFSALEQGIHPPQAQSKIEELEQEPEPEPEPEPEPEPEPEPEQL

Substance “IMP761 (humanized 13E2-human IgG4 Fc antibody)” returned an inhibition of luciferase expression (RLU) under an NFAT response element in Jurkat LAG-3+/NFAT-luc2 effector cells stimulated with anti-CD3 (OKT3, 3 ng/ml) of 37 ng/mL.
